Bridge positions count the residues as written; N and C are the ends. Square brackets hold non-standard residues; d marks the D form. Peptide text beside a SMILES is read from it. * marks the point of attachment. X1 = O=C(O)CN1CCN(CC(=O)O)CCN([C@H](CCC(=O)*)C(=O)O)CC1; dPhe(4-NHCONH2) = NC(=O)Nc1ccc(C[C@@H](N)C(=O)O)cc1; Dihydroorotyl(S) = O=C1C[C@@H](C(=O)*)NC(=O)N1; Phe(4-Cl) = N[C@@H](Cc1ccc(Cl)cc1)C(=O)O; Phe(4-NH2) = Nc1ccc(C[C@H](N)C(=O)O)cc1
Columns and labels:
[1] = Biodistribution in HEK-hsst2 tumor-bearing mice; details: female, Balb/c nude, mouse, in vivo, iv, total radioactivity
[2] = target: T1, human sst2 receptors (Homo sapiens, UniProt P30874); assay: Saturation binding on HEK-hsst2 cells; details: 2 hours at +4 °C
T1 construct: expressed in transfected cells; host or cells: HEK-293 (HEK-hsst2), a gift from Prof; Schulz, University of Jena
T1 sequence (P30874 whole entry): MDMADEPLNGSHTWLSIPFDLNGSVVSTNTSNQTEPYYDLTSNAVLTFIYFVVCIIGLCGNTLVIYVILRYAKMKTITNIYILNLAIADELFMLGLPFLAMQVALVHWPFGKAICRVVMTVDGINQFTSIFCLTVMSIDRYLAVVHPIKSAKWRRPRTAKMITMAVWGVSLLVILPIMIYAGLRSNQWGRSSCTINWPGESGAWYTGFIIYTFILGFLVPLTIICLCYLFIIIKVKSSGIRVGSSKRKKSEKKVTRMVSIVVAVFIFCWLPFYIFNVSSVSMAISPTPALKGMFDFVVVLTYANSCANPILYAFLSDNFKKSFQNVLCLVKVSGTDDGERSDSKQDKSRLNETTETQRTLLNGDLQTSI
Description: The saturation binding experiments were performed with radioligand (^64/natCu-NODAGA-JR11 and ^64/natCu-DOTA-TATE) concentrations ranging from 0.5–75 nM and 0.5–90 nM, respectively, for 2 hours at +4 °C as described previously [24]. The Kd and Bmax values were calculated using GraphPad.

SMILES: C[C@@H](O)[C@H](NC(=O)[C@@H]1CSSC[C@H](NC(=O)[C@@H](Cc2ccccc2)NC(=O)CN2CCN(CC(=O)O)CCN(CC(=O)O)CCN(CC(=O)O)CC2)C(=O)N[C@@H](Cc2ccc(O)cc2)C(=O)N[C@H](Cc2c[nH]c3ccccc23)C(=O)N[C@@H](CCCCN)C(=O)N[C@@H]([C@@H](C)O)C(=O)N1)C(=O)O [^64Cu-DOTA-TATE, [^64Cu-DOTA, Tyr^3, Thr^8]octreotide, metal not drawn, reference compound]
- tissue uptake at 1 h ([1]; 10 pmol, Adrenal uptake): 4.7 ± 1.5 %ID/g
- tissue uptake at 24 h ([1]; 10 pmol, Adrenal uptake): 0.7 ± 0.3 %ID/g
- tissue uptake at 1 h ([1]; 10 pmol, Blood uptake): 0.7 ± 0.2 %ID/g
- tissue uptake at 4 h ([1]; 10 pmol, Blood uptake): 0.6 ± 0.1 %ID/g
- tissue uptake at 24 h ([1]; 10 pmol, Blood uptake): 0.5 ± 0.05 %ID/g
- tissue uptake at 1 h ([1]; 10 pmol, Bone uptake): 1.6 ± 0.5 %ID/g
- tissue uptake at 24 h ([1]; 10 pmol, Bone uptake): 0.8 ± 0.1 %ID/g
- tissue uptake at 1 h ([1]; 10 pmol, Heart uptake): 1.1 ± 0.1 %ID/g
- tissue uptake at 4 h ([1]; 10 pmol, Heart uptake): 1.2 ± 0.3 %ID/g
- tissue uptake at 24 h ([1]; 10 pmol, Heart uptake): 1.1 ± 0.2 %ID/g
- tissue uptake at 24 h ([1]; 10 pmol, Intestine uptake): 2 ± 0.3 %ID/g
- tissue uptake at 1 h ([1]; 10 pmol, Kidney uptake): 4.8 ± 0.5 %ID/g
- tissue uptake at 4 h ([1]; 10 pmol, Kidney uptake): 3 ± 0.6 %ID/g
- tissue uptake at 1 h ([1]; 10 pmol, Liver uptake): 6.1 ± 1.2 %ID/g
- tissue uptake at 4 h ([1]; 10 pmol, Liver uptake): 5.2 ± 1.6 %ID/g
- tissue uptake at 24 h ([1]; 10 pmol, Liver uptake): 4.6 ± 0.6 %ID/g
- tissue uptake at 1 h ([1]; 10 pmol, Lung uptake): 9.8 ± 2.6 %ID/g
- tissue uptake at 4 h ([1]; 10 pmol, Lung uptake): 5.4 ± 1.4 %ID/g
- tissue uptake at 1 h ([1]; 10 pmol, Muscle uptake): 0.3 ± 0.1 %ID/g
- tissue uptake at 4 h ([1]; 10 pmol, Muscle uptake): 0.2 ± 0.03 %ID/g
- tissue uptake at 24 h ([1]; 10 pmol, Muscle uptake): 0.3 ± 0.1 %ID/g
- tissue uptake at 1 h ([1]; 10 pmol, Pancreas uptake): 24.6 ± 2.4 %ID/g
- tissue uptake at 4 h ([1]; 10 pmol, Pancreas uptake): 4.4 ± 1 %ID/g
- tissue uptake at 24 h ([1]; 10 pmol, Pancreas uptake): 0.95 ± 0.1 %ID/g
- tissue uptake at 4 h ([1]; 10 pmol, Spleen uptake): 1.1 ± 0.4 %ID/g
- tissue uptake at 24 h ([1]; 10 pmol, Spleen uptake): 1.2 ± 0.1 %ID/g
- tissue uptake at 1 h ([1]; 10 pmol, Stomach uptake): 16.1 ± 1.7 %ID/g
- tissue uptake at 4 h ([1]; 10 pmol, Stomach uptake): 10.6 ± 1.6 %ID/g
- tissue uptake at 24 h ([1]; 10 pmol, Stomach uptake): 3.1 ± 0.3 %ID/g
- tissue uptake at 1 h ([1]; 10 pmol, Tumor uptake): 20.3 ± 2.5 %ID/g
- tissue uptake at 4 h ([1]; 10 pmol, Tumor uptake): 14.9 ± 1 %ID/g

SMILES: C[C@@H](O)[C@@H]1NC(=O)[C@H](CCCCN)NC(=O)[C@@H](Cc2ccc(NC(N)=O)cc2)NC(=O)[C@H](Cc2ccc(NC(=O)[C@@H]3CC(=O)NC(=O)N3)cc2)NC(=O)[C@H](NC(=O)[C@H](Cc2ccc(Cl)cc2)NC(=O)CC[C@H](C(=O)O)N2CCN(CC(=O)O)CCN(CC(=O)O)CC2)CSSC[C@@H](C(=O)N[C@H](Cc2ccc(O)cc2)C(N)=O)NC1=O [^64Cu-NODAGA-JR11, metal not drawn] (X1-[Phe(4-Cl)][dC][Phe(4-NH2)](Dihydroorotyl(S))[dPhe(4-NHCONH2)]KTC[dY]-NH2; disulfide 2-7)
- tissue uptake at 1 h ([1]; 10 pmol, Adrenal uptake): 4.8 ± 0.8 %ID/g
- tissue uptake at 4 h ([1]; 10 pmol, Adrenal uptake): 3.5 ± 0.9 %ID/g
- tissue uptake at 24 h ([1]; 10 pmol, Adrenal uptake): 1.5 ± 0.6 %ID/g
- tissue uptake at 1 h ([1]; 10 pmol, Blood uptake): 0.6 ± 0.2 %ID/g
- tissue uptake at 4 h ([1]; 10 pmol, Blood uptake): 0.1 %ID/g
- tissue uptake at 24 h ([1]; 10 pmol, Blood uptake): 0.1 %ID/g
- tissue uptake at 1 h ([1]; 10 pmol, Bone uptake): 0.7 ± 0.2 %ID/g
- tissue uptake at 4 h ([1]; 10 pmol, Bone uptake): 0.8 ± 0.2 %ID/g
- tissue uptake at 24 h ([1]; 10 pmol, Bone uptake): 0.4 ± 0.2 %ID/g
- tissue uptake at 1 h ([1]; 10 pmol, Heart uptake): 0.5 ± 0.1 %ID/g
- tissue uptake at 4 h ([1]; 10 pmol, Heart uptake): 0.3 ± 0.1 %ID/g
- tissue uptake at 24 h ([1]; 10 pmol, Heart uptake): 0.2 ± 0.1 %ID/g
- tissue uptake at 1 h ([1]; 10 pmol, Intestine uptake): 0.9 ± 0.4 %ID/g
- tissue uptake at 4 h ([1]; 10 pmol, Intestine uptake): 0.7 ± 0.1 %ID/g
- tissue uptake at 24 h ([1]; 10 pmol, Intestine uptake): 0.4 %ID/g
- tissue uptake at 1 h ([1]; 10 pmol, Kidney uptake): 10.3 ± 0.7 %ID/g
- tissue uptake at 4 h ([1]; 10 pmol, Kidney uptake): 6.9 ± 0.9 %ID/g
- tissue uptake at 24 h ([1]; 10 pmol, Kidney uptake): 2.2 ± 0.6 %ID/g
- tissue uptake at 1 h ([1]; 10 pmol, Liver uptake): 1.7 ± 0.2 %ID/g
- tissue uptake at 4 h ([1]; 10 pmol, Liver uptake): 0.7 ± 0.3 %ID/g
- tissue uptake at 24 h ([1]; 10 pmol, Liver uptake): 0.3 ± 0.1 %ID/g
- tissue uptake at 1 h ([1]; 10 pmol, Lung uptake): 3 ± 1 %ID/g
- tissue uptake at 4 h ([1]; 10 pmol, Lung uptake): 0.8 ± 0.2 %ID/g
- tissue uptake at 24 h ([1]; 10 pmol, Lung uptake): 0.5 ± 0.1 %ID/g
- tissue uptake at 1 h ([1]; 10 pmol, Muscle uptake): 0.4 %ID/g
- tissue uptake at 4 h ([1]; 10 pmol, Muscle uptake): 0.1 ± 0.1 %ID/g
- tissue uptake at 24 h ([1]; 10 pmol, Muscle uptake): 0.04 %ID/g
- tissue uptake at 1 h ([1]; 10 pmol, Pancreas uptake): 5.6 ± 0.6 %ID/g
- tissue uptake at 4 h ([1]; 10 pmol, Pancreas uptake): 0.4 ± 0.1 %ID/g
- tissue uptake at 24 h ([1]; 10 pmol, Pancreas uptake): 0.2 %ID/g
- tissue uptake at 1 h ([1]; 10 pmol, Spleen uptake): 0.9 ± 0.2 %ID/g
- tissue uptake at 4 h ([1]; 10 pmol, Spleen uptake): 1.2 ± 0.2 %ID/g
- tissue uptake at 24 h ([1]; 10 pmol, Spleen uptake): 0.9 ± 0.1 %ID/g
- tissue uptake at 1 h ([1]; 10 pmol, Stomach uptake): 4.9 ± 1.6 %ID/g
- tissue uptake at 4 h ([1]; 10 pmol, Stomach uptake): 0.9 ± 0.2 %ID/g
- tissue uptake at 24 h ([1]; 10 pmol, Stomach uptake): 0.4 %ID/g
- tissue uptake at 1 h ([1]; 10 pmol, Tumor uptake): 20.6 ± 3.7 %ID/g
- tissue uptake at 4 h ([1]; 10 pmol, Tumor uptake): 19 ± 3.1 %ID/g
- tissue uptake at 24 h ([1]; 10 pmol, Tumor uptake): 7.7 ± 2.5 %ID/g
- tissue uptake at 1 h ([1]; 200 pmol, Adrenal uptake): 2.1 ± 1.2 %ID/g
- tissue uptake at 1 h ([1]; 200 pmol, Blood uptake): 0.5 ± 0.1 %ID/g
- tissue uptake at 1 h ([1]; 200 pmol, Bone uptake): 0.5 ± 0.3 %ID/g
- tissue uptake at 1 h ([1]; 200 pmol, Heart uptake): 0.3 ± 1 %ID/g
- tissue uptake at 1 h ([1]; 200 pmol, Intestine uptake): 0.5 ± 0.1 %ID/g
- tissue uptake at 1 h ([1]; 200 pmol, Kidney uptake): 10.6 ± 1.6 %ID/g
- tissue uptake at 1 h ([1]; 200 pmol, Liver uptake): 1.6 ± 0.3 %ID/g
- tissue uptake at 1 h ([1]; 200 pmol, Lung uptake): 0.4 ± 0.2 %ID/g
- tissue uptake at 1 h ([1]; 200 pmol, Muscle uptake): 0.2 %ID/g
- tissue uptake at 1 h ([1]; 200 pmol, Pancreas uptake): 1.7 ± 0.3 %ID/g
- tissue uptake at 1 h ([1]; 200 pmol, Spleen uptake): 0.7 ± 0.1 %ID/g
- tissue uptake at 1 h ([1]; 200 pmol, Stomach uptake): 1.7 ± 0.7 %ID/g
- tissue uptake at 1 h ([1]; 200 pmol, Tumor uptake): 16.4 ± 0.7 %ID/g
- tissue uptake at 1 h ([1]; 1000 pmol, Adrenal uptake): 1.4 ± 0.6 %ID/g
- tissue uptake at 1 h ([1]; 1000 pmol, Blood uptake): 0.4 ± 0.1 %ID/g
- tissue uptake at 1 h ([1]; 1000 pmol, Bone uptake): 0.8 ± 0.4 %ID/g
- tissue uptake at 1 h ([1]; 1000 pmol, Heart uptake): 0.3 ± 0.1 %ID/g
- tissue uptake at 1 h ([1]; 1000 pmol, Intestine uptake): 0.3 ± 0.1 %ID/g
- tissue uptake at 1 h ([1]; 1000 pmol, Kidney uptake): 7.9 ± 0.4 %ID/g
- tissue uptake at 1 h ([1]; 1000 pmol, Liver uptake): 1 ± 0.2 %ID/g
- tissue uptake at 1 h ([1]; 1000 pmol, Lung uptake): 0.3 ± 0.1 %ID/g
- tissue uptake at 1 h ([1]; 1000 pmol, Muscle uptake): 0.3 ± 0.2 %ID/g
- tissue uptake at 1 h ([1]; 1000 pmol, Pancreas uptake): 0.8 ± 0.2 %ID/g
- tissue uptake at 1 h ([1]; 1000 pmol, Spleen uptake): 0.5 ± 0.1 %ID/g
- tissue uptake at 1 h ([1]; 1000 pmol, Stomach uptake): 0.9 ± 0.2 %ID/g
- tissue uptake at 1 h ([1]; 1000 pmol, Tumor uptake): 9.7 ± 2.4 %ID/g
- tissue uptake at 1 h ([1]; 2000 pmol, Adrenal uptake): 1.9 ± 0.7 %ID/g
- tissue uptake at 1 h ([1]; 2000 pmol, Blood uptake): 0.3 ± 0.1 %ID/g
- tissue uptake at 1 h ([1]; 2000 pmol, Bone uptake): 0.2 %ID/g
- tissue uptake at 1 h ([1]; 2000 pmol, Heart uptake): 0.2 ± 0.1 %ID/g
- tissue uptake at 1 h ([1]; 2000 pmol, Intestine uptake): 0.4 ± 0.1 %ID/g
- tissue uptake at 1 h ([1]; 2000 pmol, Kidney uptake): 8.1 ± 0.7 %ID/g
- tissue uptake at 1 h ([1]; 2000 pmol, Liver uptake): 0.8 ± 0.1 %ID/g
- tissue uptake at 1 h ([1]; 2000 pmol, Lung uptake): 0.3 %ID/g
- tissue uptake at 1 h ([1]; 2000 pmol, Muscle uptake): 0.2 %ID/g
- tissue uptake at 1 h ([1]; 2000 pmol, Pancreas uptake): 0.6 ± 0.1 %ID/g
- tissue uptake at 1 h ([1]; 2000 pmol, Spleen uptake): 0.6 ± 0.1 %ID/g
- tissue uptake at 1 h ([1]; 2000 pmol, Stomach uptake): 0.8 ± 0.1 %ID/g
- tissue uptake at 1 h ([1]; 2000 pmol, Tumor uptake): 9.2 ± 0.4 %ID/g
- Kd [2]: 5.7 ± 0.95 nM

From PMC5906006 (PLoS ONE, 2018)
